Data reported in US10662230B2, “Cyclic RGD cell-binding motif and uses thereof” (Spiber Technologies AB, priority 2015, dated 2020).

What was measured:
[1] = test system: Human dermal microvascular endothelial cells (EC); assay: Early attachment assay, endothelial cells on silk films; format: cell-based; conditions: 1 h adhesion to film
Description: Human dermal microvascular endothelial cells (EC), (HDMEC, PromoCell GmbH, Germany) isolated from dermis from adult donor were grown in culture flasks coated with gelatin (Sigma Aldrich) in complete endothelial cell media MV, containing 5% fetal bovine serum (PromoCell GmbH, Germany).
(§1) Cells were harvested at passage 3-8, seeded at 20 000/cm^2 and allowed to adhere to the films or controls for 1 h in a cell incubator before gentle washing twice with pre-warmed phosphate buffered saline (PBS) followed by 10 min fixation with 96% ethanol. After three washings in water, cells were stained for 30 min with 0.1% Crystal Violet in H2O. Plates were dried after extensive washing in water.
Attachment and morphology of cells bound to the films obtained in Example 3 were documented by taking micrographs at 2× and 10× magnification in an inverted bright field microscope. The color was then dissolved in 40 μL 20% acetic acid for 10 min, and 35 μL of the solution was transferred to a 384-well plate for optical density measurement at 595 nm (TECAN Infinite M200). Wells with cells fixed without pre-washing was used as positive control. Wells with no cells were used as blank. Experiments were run in hexaplicates and repeated three times.
First, we wanted to investigate how well adherent cells attach and spread on the FNCC-silk (FNCC-4RepCT, SEQ ID NO: 13) compared to linear RGD proteins (RGD-4RepCT, SEQ ID NO: 16) and WT silk proteins (4RepCT, SEQ ID NO: 2) obtained in Example 3. Silk films of the three different variants were prepared in cell culture plates, and human primary endothelial cells (EC), mesenchymal stem cells (MSC) or keratinocytes (KC) were allowed to adhere for 1 h before fixation and staining.

[2] = test system: Human mesenchymal stem cells (hMSC); assay: Early attachment assay, mesenchymal stem cells on silk films; format: cell-based; conditions: MSC, 1 h adhesion to film
Description: Human mesenchymal stem cells (hMSC, Gibco) from bone marrow were grown in culture flasks coated with CELLstart (Gibco) in complete StemPro MSC serum free medium CTS (Gibco) containing […] fibroblast growth factor […] (Gibco) and 2 mM Glutamax (Gibco).
as §1
Attachment and morphology of cells bound to the films obtained in Example 3 were documented by taking micrographs at 2× and 10× magnification in an inverted bright field microscope. The color was then dissolved in 40 μL 20% acetic acid for 10 min, and 35 μL of the solution was transferred to a 384-well plate for optical density measurement at 595 nm (TECAN Infinite M200). Wells with cells fixed without pre-washing was used as positive control. Wells with no cells were used as blank. Experiments were run in hexaplicates and repeated three times. […]

[3] = molecular target: T1, integrin α5β1 (Homo sapiens, UniProt P05556+P08648); assay: Engagement of integrin α5β1 in KC (SNAKA-51/HUTS-4 staining); format: cell-based; conditions: KC adhering for 3 h
T1 construct: endogenous in cells; host or cells: human primary keratinocytes (KC)
Description: Primary antibody were used at the following concentrations in 1% BSA: mouse anti human vinculin (Sigma V9131) at 9.5 μg/ml, mouse-anti human beta1-integrin (activated conformation, clone HUTS-4) at 3.3 μg/mL, or mouse-anti human alpha5-integrin (ligand bound conformation, clone SNAKA-51) at 2.5 μg/mL, both Millipore.
Since the integrin α5β1 is known to selectively bind to fibronectin, we decided to investigate if this integrin is involved in the binding of KC to FNCC-silk (SEQ ID NO: 13). To do this, we selected two monoclonal antibodies, developed to specifically recognize the ligand bound conformation of α5 integrin (SNAKA-51) and the activated conformation of β1 integrin (HUTS-4), respectively, and used them in combination for staining of KC adhering to FNCC-silk for 3 h, in combination with staining with phalloidin for F-actin, as set out in Examples 6-7.

[4] = test system: primary keratinocytes (NHEK); assay: Cell viability analysis with Alamar Blue; format: cell-based, human; conditions: seeding 3 500 cells/cm^2, day 3 and day 6
Description: For microscopic studies, the proteins were casted as films in chamber glass slides (LabTekII). For Alamar blue experiments, where whole well coverage is desired, the cell culture wells were coated with a covering protein solution of 0.3 mg/ml for 2 h before the liquid was removed. Films and coated surfaces were allowed to dry over night at 25° C. and 30% rh under sterile conditions, then washed twice with sterile 20 mM phosphate buffer, pH 7.4, and pre-incubated with complete cell culture medium for 1 h at 37° C. with 5% CO2 before cell seeding.
Cell growth of primary keratinocytes (NHEK) after initial low seeding density 3 500 cells/cm^2 on wells coated with films of WT-silk (SEQ ID NO: 2) or FNCC-silk (SEQ ID NO: 13) in 96-well plates was monitored with Alamar Blue cell viability assay (Molecular Probes) every third day during the culture period. After 4 h incubation with Alamar blue (diluted 1:10 in cell culture medium), fluorescence intensity of 90 μL supernatants from the cultures was measured with a fluorescence plate reader (CLARIOstar, BMG Labtech) using excitation at 544 nm and emission at 595 nm. Two independent experiments were performed where films were analysed in hexaplicates. Fluorescence intensities, correlating the number of living cells in each well, were plotted over time to yield growth profiles of cells seeded on silk with different cell binding motifs.

[5] = test system: dermal keratinocytes (NHEK); assay: Repopulation assay (wound field); format: cell-based, human; conditions: 0.9 mm wound field, 6 days of culture
Description: To evaluate the ability of the different silk variants to support repopulation of an open would field, dermal keratinocytes (NHEK) were stained with Oregon green cell trace (Life Technologies) before seeded onto films of FNCC-silk (SEQ ID NO: 13) and WT-silk (SEQ ID NO: 2) at 20 000 cells/cm^2 in 24 well plates. Wound field inserts (CytoSelect™ Wound healing assay, Cell Biolabs) were added into the wells before cell seeding to generate a 0.9 mm wide open would field in the cell monolayer, while keeping the film intact. After 16 h the inserts were removed, and the repopulation process were followed each day and documented by inverted fluorescence microscopy at day 0 (insert removal), day 2 and 4. At day 6 cells were fixed and stained according to the assay protocol, and imaged by inverted bright field microscopy.
Thus, green-traced cells were seeded at high density into wells with inserts preventing cells to reach a defined part of the silk-film, the “wound field”. After monolayer formation outside the wound field, the insert was removed, and repopulation of the gap was documented during 6 days of culture, thus allowing both migration and proliferation of cells.

[6] = Fabrication of cell culture matrices (fiber, film, foam, free-standing film); format: physicochemical
Description: Briefly, petri dishes were coated at room temperature with recombinant spider silk solution at a concentration of 0.3 mg/ml to generate films. Foams were made by rapid pipetting of the silk solution, and fibers were formed by gentle wagging in 15 ml tube followed by cutting into smaller pieces.
Free-standing films were prepared by applying of a droplet of protein solution (3 mg/ml) onto a ˜3 mm wide frame of metal wire hanging hooked up in a well of a 96-well plate and allowed to dry over night at 25° C. and 30% rh under sterile conditions.
It was observed that a spider silk protein functionalized with a disulfide-looped RGD motif self-assembles into stable matrices. As shown by the micrographs in FIG. 2a, the FNCC-4RepCT (SEQ ID NO: 13) protein could be presented as matrices in the format of fiber (upper), film (middle) and free standing film (lower). Scale bars in FIG. 2a indicate 500 μm (upper & middle) and 1000 μm (lower). […] The smooth film formats (casted and free-standing) were used in the subsequent cell adhesion experiments to rule out the effects of matrix morphology.

T1 sequence (P08648 42-894 limits assumed): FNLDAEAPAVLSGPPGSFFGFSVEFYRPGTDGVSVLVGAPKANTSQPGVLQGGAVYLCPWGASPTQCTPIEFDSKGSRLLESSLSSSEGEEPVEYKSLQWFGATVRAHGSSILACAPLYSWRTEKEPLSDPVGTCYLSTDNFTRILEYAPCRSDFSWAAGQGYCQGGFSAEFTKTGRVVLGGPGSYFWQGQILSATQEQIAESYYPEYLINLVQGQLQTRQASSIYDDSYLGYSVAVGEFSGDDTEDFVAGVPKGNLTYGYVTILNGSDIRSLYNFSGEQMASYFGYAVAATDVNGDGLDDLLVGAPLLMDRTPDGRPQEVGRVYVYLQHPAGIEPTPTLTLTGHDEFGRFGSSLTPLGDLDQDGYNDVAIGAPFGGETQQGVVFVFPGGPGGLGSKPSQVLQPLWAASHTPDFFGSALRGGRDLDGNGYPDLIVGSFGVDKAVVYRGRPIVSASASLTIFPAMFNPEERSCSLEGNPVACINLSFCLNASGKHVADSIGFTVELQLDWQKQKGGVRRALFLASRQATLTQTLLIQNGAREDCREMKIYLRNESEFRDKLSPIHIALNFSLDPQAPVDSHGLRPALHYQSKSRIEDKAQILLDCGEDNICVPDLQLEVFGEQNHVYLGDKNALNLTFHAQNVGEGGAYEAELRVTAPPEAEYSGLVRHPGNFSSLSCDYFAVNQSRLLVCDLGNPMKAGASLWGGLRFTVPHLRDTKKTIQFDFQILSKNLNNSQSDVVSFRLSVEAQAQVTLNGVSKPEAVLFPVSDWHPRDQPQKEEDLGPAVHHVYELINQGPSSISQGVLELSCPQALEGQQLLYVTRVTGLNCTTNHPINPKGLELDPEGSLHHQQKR
T1 sequence (P08648 895-1049 partner limits assumed): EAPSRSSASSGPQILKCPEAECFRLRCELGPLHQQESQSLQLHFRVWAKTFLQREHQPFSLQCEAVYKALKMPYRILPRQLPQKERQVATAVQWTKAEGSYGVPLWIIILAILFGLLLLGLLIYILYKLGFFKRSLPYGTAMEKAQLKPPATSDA
T1 sequence (P05556 21-798): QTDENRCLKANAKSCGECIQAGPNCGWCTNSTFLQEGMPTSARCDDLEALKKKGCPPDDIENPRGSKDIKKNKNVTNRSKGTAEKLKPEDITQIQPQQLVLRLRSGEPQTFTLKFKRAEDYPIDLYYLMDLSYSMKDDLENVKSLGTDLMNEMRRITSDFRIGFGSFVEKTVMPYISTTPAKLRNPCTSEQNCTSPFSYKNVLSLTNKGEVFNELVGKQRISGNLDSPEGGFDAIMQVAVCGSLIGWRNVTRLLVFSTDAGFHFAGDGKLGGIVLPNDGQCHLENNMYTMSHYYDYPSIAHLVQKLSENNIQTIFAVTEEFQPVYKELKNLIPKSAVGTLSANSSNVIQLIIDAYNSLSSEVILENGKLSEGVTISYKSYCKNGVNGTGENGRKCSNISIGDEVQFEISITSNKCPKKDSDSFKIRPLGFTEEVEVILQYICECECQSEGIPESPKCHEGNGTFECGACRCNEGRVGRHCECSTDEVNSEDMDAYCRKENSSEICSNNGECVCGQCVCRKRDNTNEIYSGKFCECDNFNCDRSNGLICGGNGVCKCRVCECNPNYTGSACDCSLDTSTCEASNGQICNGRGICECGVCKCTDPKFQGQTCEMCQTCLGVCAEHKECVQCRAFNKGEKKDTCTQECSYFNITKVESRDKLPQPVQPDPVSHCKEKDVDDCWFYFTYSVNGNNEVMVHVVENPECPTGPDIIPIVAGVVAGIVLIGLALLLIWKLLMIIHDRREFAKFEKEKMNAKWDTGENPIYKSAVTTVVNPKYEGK

B1: FNCC-silk: recombinant spider silk protein 4RepCT with N-terminal cysteine-looped RGD motif CTGRGDSPAC (SEQ ID NO: 10) (protein)
chain: GPNSCTGRGDSPACGSASGQGGYGGLGQGGYGQGAGSSAAAAAAAAAAAAGGQGGQGQGGYGQGSGGSAAAAAAAAAAAAAAAGRGQGGYGQGSGGNAAAAAAAAAAAAAAAGQGGQGGYGRQSQGAGSAAAAAAAAAAAAAAGSGQGGYGGQGQGGYGQSSASASAAASAASTVANSVSRLSSPSAVSRVSSAVSSLVSNGQVNMAALPNIISNISSSVSASAPGASGCEVIVQALLEVITALVQIVSSSSVGYINPSAVNQITNVVANAMAQVMG
modifications: cyclic disulfide loop; Fusion protein; DISULFID (5)..(14)
[1]; crystal violet staining
  attachment seen in micrographs: clear improvement of attachment is seen on the FNCC films compared to both RGD and WT
[1]; seeding 20 000/cm2
  OD of crystal violet dissolved from adhered cells (number of bound cells): significantly more cells had bound to the FNCC-silk after 1 h compared to WT silk
[1]; seeding 20 000/cm2, listed as FNCC
  OD of crystal violet dissolved from adhered cells (number of bound cells): Significantly more EC had attached to FNCC also compared to RGD silk
[2]; crystal violet staining
  attachment seen in micrographs: clear improvement of attachment is seen on the FNCC films compared to both RGD and WT
[2]; seeding 20 000/cm2, serum-free
  OD of crystal violet dissolved from adhered cells (number of bound cells): significantly more cells had bound to the FNCC-silk after 1 h compared to WT silk
[3]
  staining for ligand bound α5 integrin and activated β1 integrin: week but distinct staining pattern resembling the pattern seen when staining for vinculin
[4]
  level of viable cells (Alamar Blue fluorescence): increased level of viable cells on FNCC-silk compared to WT-silk
[5]
  repopulation of the wound field: efficiently repopulated the wound field on FNCC-silk, which was almost completely covered with cells at the end of the experiment
[6]
  formation of free-standing films: possible to form free-standing films
  stability and integrity of fibers, film and foam: higher stability and integrity than noted for linear RGD silk proteins (RGD-4RepCT, SEQ ID NO: 16) and WT silk proteins
